Measured values as given in US9920105B2, “Human ferritin-derived fusion polypeptide” (Kyungpook National University Industry-Academic Cooperation …, priority 2013, dated 2018).

Key:
Format in all cases: in vivo
C57BL/6J mice [1] = assay: Secreted glycoprotein in BAL fluid (modified ELISA) in APO-induced asthma model; settings: 50 uL of 1 mg/ml, 1 h before allergen challenge; FIG. 17d
Method: (§1) Wild-type C57BL/6J mice were purchased from Jackson Laboratory (Bar Harbor, Me., USA), and bred in a pathogen-free animal facility. All animals were fed with a normal diet (PMI Lab Diet) with free access to water. 6-8-week-old female mice were used for this study. Animal care and experimental procedures were performed with the approval of the Animal Care Committee of KAIST.
Briefly, Aspergillus oryzae protease (1 mg/mL in PBS, Sigma-Aldrich) and chicken egg ovalbumin (OVA, 0.5 mg/mL in PBS, Sigma-Aldrich) allergen (APO) were mixed 1:9 (v/v) immediately before administration. Mice received four intraperitoneal sensitizations and the intranasal challenge every 4 days (0, 4, 8, 12, 16) with 50 uL of allergen. […]
Levels of secreted glycoprotein were measured with modified ELISA by the existing method (Lee, S. H. et al., (2004) J. Allergy Clin. Immunol. 113, 72778.). […]
40 ul of each sample was transferred to an ELSA plate Greiner, Kremsmunster, Austria), and incubated at 37° C. for 2 h. […] After final washing upon the completion of the reaction, 70 ul of alkaline phosphatase substrate (5 mmol in 0.1 mol/L alkaline buffer, Sigma-Aldrich) was added, and developed until a mucin standard curve was readily apparent. After termination of the reaction with addition of 40 ul of 0.5 N sodium hydroxide, optical density was measured at 405 nm by an ELISA reader (BioRad, Hercules, Calif., USA).

C57BL/6J mice [2] = assay: Airway hyper-responsiveness (AHR) with FlexiVent system in APO-induced asthma model; settings: 50 uL of 1 mg/ml, 1 h before allergen challenge; in comparison with control ferritin; FIG. 17a
Method: as §1
(§2) Asthma induction was performed by the existing method (Corry D B, Folkesson H G, Warnock M L, Erle D J, Matthay M A, et al. (1996) J Exp Med 183: 109117).
Briefly, Aspergillus oryzae protease (1 mg/mL in PBS, Sigma-Aldrich) and chicken egg ovalbumin (OVA, 0.5 mg/mL in PBS, Sigma-Aldrich) allergen (APO) were mixed 1:9 (v/v) immediately before administration. Mice received four intraperitoneal sensitizations and the intranasal challenge every 4 days (0, 4, 8, 12, 16) with 50 uL of allergen. For intranasal challenge, mice were lightly anesthetized with isoflurane inhalation (Abbott Laboratory, Abbott Park, Ill., USA). A 50 uL of AP1-retaining ferritin cage (GG-AP1L, 157cysAP1-PBNC) or AP1-not-inserted ferritin cage (wt FTL), which was diluted to 1 mg/ml in PBS, was administered 1 h before allergen challenge. […]
Briefly, 16 h after final intranasal challenge, AHR was measured with a FlexiVent system (SCIREQ Inc., Montreal, Canada). […]

C57BL/6J mice [3] = assay: BAL cytology in APO-induced asthma model; settings: 50 uL of 1 mg/ml, 1 h before allergen challenge; in comparison with control ferritin
Method: as §1, §2
(§3) Briefly, Aspergillus oryzae protease (1 mg/mL in PBS, Sigma-Aldrich) and chicken egg ovalbumin (OVA, 0.5 mg/mL in PBS, Sigma-Aldrich) allergen (APO) were mixed 1:9 (v/v) immediately before administration. Mice received four intraperitoneal sensitizations and the intranasal challenge every 4 days (0, 4, 8, 12, 16) with 50 uL of allergen. For intranasal challenge, mice were lightly anesthetized with isoflurane inhalation (Abbott Laboratory, Abbott Park, Ill., USA). A 50 uL of AP1-retaining ferritin cage (GG-AP1L, 157cysAP1-PBNC) or AP1-not-inserted ferritin cage (wt FTL), which was diluted to 1 mg/ml in PBS, was administered 1 h before allergen challenge.
For phenotypes of allergic asthma, AHR, BAL cytology, BAL glycoprotein assay, and lung histopathology were performed by the existing method (Lee, S. H., et al. (2003) Nat. Med. 9, 128111286). […]

C57BL/6J mice [4] = assay: Lung microstructure observation (PAS-stained lung slides) in APO-induced asthma model
Method: as §1, §3
Finally, the experimental mice were sacrificed, and lung slide specimens stained with periodic acid Schiff (PAS) were prepared. Then, changes of inflammatory cells and goblet cells were observed (arrowhead: mucin-positive goblet cell, arrow: inflammatory cell).

B1: GG-AP1L: human ferritin light chain having AP1L (CRKRLDRNC) inserted in GG cassette; AP1-retaining ferritin cage used in asthma model (protein)
chain: MSSQIRQNYSTDVEAAVNSLVNLYLQASYTYLSLGFYFDRDDVALEGVSHFFRELAEEKREGYERLLKMQNQRGGRALFQDIKKPAEDEWGKTPDAMKAAMALEKKLNQALLDLHALGSARTDPHLCDFLETHFLDEEVKLIKKMGDHLTNLHRGSCRKRLDRNCGGPEAGLGEYLFERLTLKHD
modifications: left off: small tags and cut ends
notes: AP1-retaining ferritin cage used in asthma model
C57BL/6J mice [1]
  amount of secreted glycoprotein in BAL fluid: significantly reduced
C57BL/6J mice [2]
  airway hyper-responsiveness (AHR): significantly suppressed
C57BL/6J mice [3]
  count of eosinophils in BAL fluid: significantly decreased
  count of inflammation cells in bronchoalveolar lavage (BAL) fluid: significantly decreased
C57BL/6J mice [4]
  counts of mucus-producing goblet cells: significantly reduced
  counts of peribronchial inflammatory cells: significantly reduced
